The results in this text go back to the DeepSol protein solubility set.

This series can be described thus: soluble on expression in E. coli; label from the status in PepcDB or PDB records.
With “MGTEGGAMIRTVALVGHAGSGKTTLTEALLYKTGAKERRGRVEEGTTTTDYTPEAKLHRTTVRTGVAPLLFRGHRVFLLDAPGYGDFVGEIRGALEAADAALVAVSAEAGVQVGTERAWTVAERLGLPRMVVVTKLDKGGDYYALLEDLRSTLGPILPIDLPLYEGGKWVGLIDVFHGKAYRYENGEEREAEVPPEERERVQRFRQEVLEAIVETDEGLLEKYLEGEEVTGEALEKAFHEAVRRGLLYPVALASGEREIGVLPLLELILEALPSPTERFGDGPPLAKVFKVQVDPFMGQVAYLRLYRGRLKPGDSLQSEAGQVRLPHLYVPMGKDLLEVEEAEAGFVLGVPKAEGLHRGMVLWQGEKPESEEVPFARLPDPNVPVALHPKGRTDEARLGEALRKLLEEDPSLKLERQEETGELLLWGHGELHLATAKERLQDYGVEVEFSVPKVPYRETIKKVAEGQGKYKKQTGGHGQYGDVWLRLEPASEYGFEWRITGGVIPSKYQEAIEEGIKEAAKKGVLAGFPVMGFKAIVYNGSYHEVDSSDLAFQIAASLAFKKVMAEAHPVLLEPIYRLKVLAPQERVGDVLSDLQARRGRILGMEQEGALSVVHAEVPLAEVLEYYKALPGLTGGAGAYTLEFSHYAEVPPHLAQRIVQERAQEG”, the “soluble on expression in E. coli” value is reported as “soluble”.
Turning to “MGTIADIVVTEQNAERFWIVVHRDGAPSLRLTVDQDVLLQFRLKKGMEISDDLLQHIVYADEVKKAYQQALYFLAHRMRSEHEVAAHLRKKGAPDSVIDEVLKKLRAERYVDDEAFAAAYVRTQKKTAAKGPLLIRAELERLGVLGCLIEQSLAEYTLDEQMAIARSLYEKAKKQRLAESARAFLERVRQQLMRKGFPHEVIAAVLADGGAHTEQEEREALSVQAEKAHRRYAHHPRPLYEQKMRQALYRKGFALDLINEWLRMHGNDE”, the “soluble on expression in E. coli” value is “not soluble”.
In the case of “MGVDRQILVEGDNVTKPKNGQTVTCHYVLTLENGKKIDSSRDRGTPFKFKIGKGEVIKGWDQGVAQMSVGEKSKLTISADLGYGPRGVPPQIPANATLVFEVELLGVN”, the “soluble on expression in E. coli” value was “soluble”.
Turning to “MGVKVASSSTFLQWTTQPIIHQSSSPSQTLASGTITSPSKRRSTVHDGRFLSCRFVTQRLNRSALFGTPSTKLHRPKSCELWKSSSSSSRPIKTQSFRRVYSANLDPFSDEEFSKKIQELTLRFNIPHHDDDENSIEPPWNEMVHLSSIEMKANSVDLPLSLRIIKKKRQWEEGVKQAGESACCSMNKAFSSMVFMIRELQSFTLHMREILFYEDLQEILLRVREEMQQSFVWLFQQVFSATPTLMVYVMILLANFTVYSIGNNSSALAAVAPLPPTITELTTVSETEETNVKFDSSVVKTFFVSSPSGSIASVGGNNNGGGGNVKPVLSGTDGDGSDGSEQFRTIIPEGVSQLSSSNFGSEPSVSGQDEHRLWNSMVEEAERMQYSNIDDSLDQETRKRFVSHVEARVEAEEDTGYFKTELMYQTELSQEPNNPLLLANYAQFLYLVSNDHDRAEEYFKRAVGVEPKDAEAFSKYATFLWRARDDLWAAEETFLEAIDADPTNSYYAANYANFLWNTGGDDTCFPLDDESHEDTI”, the “soluble on expression in E. coli” value was “not soluble”.
For the sequence “MGVMNTGETLDEKAIVASAEKALSDIAAIRTEVSKVIFGQEKVVQNTLLAILSGGHALLVGVPGLAKTKLVTTLGTVLGLDANRIQFTPDLMPSDILGSEVMDQDENGRRSFRFIKGPIFGQLLMADEINRASPRTQSALLQAMQEYHITMAGQTYELPKPFHVLATQNPLEQEGTYPLPEAQLDRFLLQVDVDYPELAAERQILLDTTGTASGEARPVIGAERLMEIQALIRQMPVSDKVVDAILSLVRSARPGHGNKLTDKNVVWGPGPRAGQSLMLTARARALYEGRLAPSLDDVHALAEPVLEHRMALTFAARAEGMSVRDVIAALVEQAKN”, the “soluble on expression in E. coli” value is reported as “not soluble”.
For “MGWHFQQSVTMPSEWRTLALESDDSYNDFTVIMRRKLQENQVNVVNLEQNIPILRINKQITSDQVASIFKHGREAEKLLMLEVEATFRLANGESYPINAKVNRTFFDNARAALAKSEEREVIWNDMREQVARQLIVKIIALQNQIKRKLEHHHHHH”, the “soluble on expression in E. coli” value was “soluble”.
As to “MGYLVSKHLALSLGSSKRGYILSPIMPPVVIVEDDGPGYPFDIYYSEGKRVLTIVHRANPEREVQDEYLHTLSLWLREMGVGRVILVGGLNMEFMPREEKHGYRWLANRHYKGPKLEAPTMEAGLGVVGPLALLYMYLDYLGVPAAMVLPYSVAERVDYEAAIRGLKVIGGSIIGVEIPTDEIEKMASMQREILETISRMIEGEEEKESGGIYM”, the “soluble on expression in E. coli” value was “not soluble”.
Consider “MGYTKKVYEGGSNVDQFVTRFLLKETANQIQSLLSSVESAVEAIEEQTSQLRQNHIKPSHSAAQTWCGSPTPASAPNHKLMAMEQGKTLPSATEDAKEEGLEAQISRLAELIGRLESKALWFDLQQRLSDEDGTNMHLQLVRQEMAVCPEQLSEFLDSLRQYLRGTTGVRNCFHITAVRLSDGFTFVIYEFWETEEAWKRHLQSPLCKAFRHVKVDTLSQPEALSRILVPAAWCTVGRD”, for which the “soluble on expression in E. coli” value was “not soluble”.
“MHADLVIVGAGMVGSALALALEGSGLEVLLVDGGSLDVAPFKPEAPYEPRVSALSEASRRILQRLHAWDGIVARRAEPYREMQVWDGSGTGRIGFSAASVHAEVLGHIVENRVVQDALLERLHDSTTGLLANARLEQMRHSGDDWLLTLADGRQLRAPLVVAADGANSAVRRLAGCATREWDYLHHAIVTSVRCENAHRATAWQRFTDDGPLAFLPLPDRGDEHWCSIVWSTTPEQAERLMALDEDGFRAALGEAFEQRLGAILHADRRLCIPLRQRHAKRYVEPGLALVGDAAHTIHPLAGQGVNLGFLDAAVLSEVLLHALERGERLADERVLSRFERRRMPHNLGMMTAMEGFERLFQADRLPLRWLRNAGLRLVDGHHEAKALFVRQALGLSGDLPMLARVLEHHHHHH”: the “soluble on expression in E. coli” value is “soluble”.
Take “MHAILNTFKSGVGDCVFMRLIKDDATFSIMIDCGKYTPEINLFIKEKLHKHIDLLIVTHIDDDHINGVCEMLIAMPEITIGKIFYNCYQLLSGEKIAALTKIVSSDIEILTQNLPKQRTDTNGKINMEHASVLASILLKNPQWNSAWEKTFYIENSLEPYPLGDGLGQLVFISPTSSELKTLDMNFAREYLRLTRHEVINAPFEGRETLFELVSRLVSMKIREREYVKKQKIAGLIDKYSVERWKKAKDFEPSGITDENKGSIAFIWEYKDTKVLFMGDAEPDIVKTAIVNKYGKVDNMKAIKVSHHGSKHSTSKELMEVIDSFDYFITGGSVGDKPSMETLVKIVDRGDNKVRTIHYNYDRNILMKDMASDESVELRQKYNFQIDTNNELEFEY”: the “soluble on expression in E. coli” value is “not soluble”.
Take “MHAITNSGWVEVITGSMFSGKTEELLRRLRRAEIAGQDVAAVTPAVDDRYGEATLGSHAGRSWAATVVEPTAEGVASIPTLLNGEQVVAIDEANFFPAELVDVCQELAADGRRVVLSGTDQTFRGEPFEPVPQLMAIAEYVDKMRAICMQCGEPATRNQRLIEGEPAHYDDPTVMVGAEETYEARCRNCHVVRRELEHHHHHH”: the “soluble on expression in E. coli” value is “not soluble”.
As to “MHDRASQMVIFYALAKAGSFTAAAKQMGVSTSHVSKQLGALEETLNLKLVHRTTRSLILTDAGQQFFLYCETIYNAMTEASAIMDDERDEVAGILRLGLSQSFGTMHIIPAIDKLRNQYPDLQVEVRLFDHQADMLKDGLDLWVTNFEDLPEGYVAQRLADSNFVLAASPDYLIDKKVPHHPLDLVEHNCLTYQSRYRDYSNWDFSKGNESLCVKVSGNYRVDLAEAVRDATISGWGIAYLASYLLTNEFNDGKLIQLLPGWKASQKMPIYAVYPSRKHLPRKISAVIDFLREHIGQPPYWDKALMKRVKL”, the “soluble on expression in E. coli” value is listed as “soluble”.
“MHEFTDTRDDSTLDEIWLVEHYPVFTQGQAGKAEHILMPGDIPVIQSDRGGQVTYHGPGQQVMYVLLNLKRRKLGVRELVTLLEQTVVNTLAELGIEAHPRADAPGVYVGEKKICSLGLRIRRGCSFHGLALNVNMDLSPFLRINPCGYAGMEMAKISQWKPEATTNNIAPRLLENILALLNNPDFEYITALEHHHHHH”: the “soluble on expression in E. coli” value is reported as “not soluble”.
Take “MHFETVIGLEVHVELKTDSKMFSPSPAHFGAEPNSNTNVIDLAYPGVLPVVNKRAVDWAMRAAMALNMEIATESKFDRKNYFYPDNPKAYQISQFDQPIGENGYIDIEVDGETKRIGITRLHMEEDAGKSTHKGEYSLVDLNRQGTPLIEIVSEPDIRSPKEAYAYLEKLRSIIQYTGVSDVKMEEGSLRCDANISLRPYGQEKFGTKAELKNLNSFNYVRKGLEYEEKRQEEELLNGGEIGQETRRFDESTGKTILMRVKEGSDDYRYFPEPDIVPLYIDDAWKERVRQTIPELPDERKAKYVNELGLPAYDAHVLTLTKEMSDFFESTIEHGADVKLTSNWLMGGVNEYLNKNQVELLDTKLTPENLAGMIKLIEDGTMSSKIAKKVFPELAAKGGNAKQIMEDNGLVQISDEATLLKFVNEALDNNEQSVEDYKNGKGKAMGFLVGQIMKASKGQANPQLVNQLLKQELDKRLEHHHHHH”: the “soluble on expression in E. coli” value is given as “soluble”.
Turning to “MHGLNKDIIFPLQIFALSNNVLYNFPEQGVVPVLYVIYAQDKADSLEKRLSVRPAHLARLQLLHDEGRLLTAGPMPAVDSNDPGAAGFTGSTVIAEFESLEAAQAWADADPYVAAGVYEHVSVKPFKKVF”, the “soluble on expression in E. coli” value is on record as “not soluble”.
“MHGVDEDDLERQRIEKIKEVQEAVAKLTGAKFQKLENLQRMERMLNKEIELLQNATRKALETHLVTCNYAFYKSIIDEVEEMENATAVLKTFKRDNVSVTVDIVMKEPNVWIKLVNRPAKTVLIEYRDGKRNGDVIAQIKQHLFVSRRFNRPQIRIYFRNGVLAEMAQKLIRHGIVVIGEHVDKSDPSLRGKWNEELIERLGEEEDSDWDEVDEDAASIPTLPSSQSQSESTLPRLNLDISAVMLLVSNMCEPGGVNYQFKEEMINKHVECERLKPAKAEVLEKLKGHHLIMCELAYRRVAEIVKNVGGPTEKKRFEELSKTIERVQDQPSDEIGRVVKLRNIKGITSITKRVFSCAEVTKTTTVTANQKFLTHSRAKHIYFDVIEIPPRPLTEQKEATAKVI”: the “soluble on expression in E. coli” value was “not soluble”.
Under “MHHHHHHKSTKILILGAGPAGFSAAKAALGKCDDITMINSEKYLPYYRPRLNEIIAKNKSIDDILIKKNDWYEKNNIKVITSEFATSIDPNNKLVTLKSGEKIKYEKLIIASGSIANKIKVPHADEIFSLYSYDDALKIKDECKNKGKAFIIGGGILGIELAQAIIDSGTPASIGIILEYPLERQLDRDGGLFLKDKLDRLGIKIYTNSNFEEMGDLIRSSCVITAVGVKPNLDFIKDTEIASKRGILVNDHMETSIKDIYACGDVAEFYGKNPGLINIANKQGEVAGLNACGEDASYSEIIPSPILKVSGISIISCGDIENNKPSKVFRSTQEDKYIVCMLKENKIDAAAVIGDVSLGTKLKKAIDSSKSFDNISSLDAILNNL” stands “soluble”; under “MHHHHHHMVGFGELKEEWRGEVVHLSWSPRAFLLKNFLSDEECDYIVEKARPKMVKSSVVDNESGKSVDSEIRTSTGTWFAKGEDSVISKIEKRVAQVTMIPLENHEGLQVLHYHDGQKYEPHYDYFHDPVNAGPEHGGQRVVTMLMYLTTVEEGGETVLPNAEQKVTGDGWSECAKRGLAVKPIKGDALMFYSLKPDGSNDPASLHGSCPTLKGDKWSATKWIHVAPIGGRH”, “soluble”; under “MHHHHHHSHMHHHHHHSHMSKYAELLAIIEELGKEIRPTYAGSKSAMERLKRGIIHARGLVREALAETERNARS”, “soluble”.
